Assay results from PMC9203827.

Molecular target: papain (UniProt P00784)
Chain of UniProt P00784 (P00784 134-345): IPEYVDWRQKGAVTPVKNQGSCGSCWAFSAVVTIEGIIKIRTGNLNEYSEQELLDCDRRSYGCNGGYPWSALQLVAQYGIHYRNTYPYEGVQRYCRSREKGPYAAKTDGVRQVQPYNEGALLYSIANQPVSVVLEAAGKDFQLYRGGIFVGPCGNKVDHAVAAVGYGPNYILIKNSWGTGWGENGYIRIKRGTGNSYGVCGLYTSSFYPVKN

inhibition of papain proteolytic activity on azocasein (absorbance); rCYST-B 0-80 μg (text: μg/μL) pre-incubated with 10 μL papain (0.1 μg/μL) at 28°C for 30 min; inhibition rises from 30 μg/μL: 100%
Substance: recombinant cystatin-B from the red piranha Pygocentrus nattereri (natural protein)
